Measured values taken from patent publication US6984772.

Assays:
[1] = molecular target: Recombinant human fibrinogen from the milk of transgenic mice (UniProt P02671)
[2] = molecular target: Plasma derived human fibrinogen (reference protein) (UniProt P02671)

**Q.** For Human thrombin, which “clot formation after thrombin, 4 U/ml, 37 C, 24 hours” value [1] is on record?
**A.** Cloudy clot-like precipitates were clearly visible in TG (pellet-2)

**Q.** And the “clot formation after thrombin, 4 U/ml, 37 C, 24 hours” value [2]?
**A.** Cloudy clot-like precipitates were clearly visible in ... hFIB-spiked NTG (pellet-2)
